Source: patent publication US20160058856A1

Columns and labels:
[1] = target: MHC class I molecule H-2K^d on CT26 target cells (mouse) (UniProt P01902); assay: cell-based or functional assay
[2] = target: MHC class I molecule H-2L^d on CT26 target cells (mouse) (UniProt P01897); assay: cell-based or functional assay
Chain of UniProt P01897 (P01897 25-362): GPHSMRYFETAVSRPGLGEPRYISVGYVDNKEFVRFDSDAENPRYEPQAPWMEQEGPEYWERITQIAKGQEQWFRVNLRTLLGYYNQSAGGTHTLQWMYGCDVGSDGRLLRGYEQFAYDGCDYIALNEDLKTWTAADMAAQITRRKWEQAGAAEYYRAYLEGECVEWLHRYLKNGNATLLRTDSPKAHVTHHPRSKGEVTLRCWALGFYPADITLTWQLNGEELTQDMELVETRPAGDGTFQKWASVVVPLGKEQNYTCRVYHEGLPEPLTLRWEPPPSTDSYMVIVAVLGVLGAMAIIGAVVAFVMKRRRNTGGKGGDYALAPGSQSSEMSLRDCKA

Chain of UniProt P01902 (P01902 22-368): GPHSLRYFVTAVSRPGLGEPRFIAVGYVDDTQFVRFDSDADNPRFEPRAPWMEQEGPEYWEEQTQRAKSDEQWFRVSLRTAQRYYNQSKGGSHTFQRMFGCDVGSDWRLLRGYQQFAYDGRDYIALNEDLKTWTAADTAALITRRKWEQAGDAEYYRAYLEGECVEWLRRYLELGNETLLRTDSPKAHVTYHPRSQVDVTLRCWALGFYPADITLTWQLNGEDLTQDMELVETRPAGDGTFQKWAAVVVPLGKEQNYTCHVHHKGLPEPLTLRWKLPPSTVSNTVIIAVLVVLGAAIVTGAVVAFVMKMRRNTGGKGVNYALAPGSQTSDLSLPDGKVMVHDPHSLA

Substance | CTL activity (CFSE-based cytotoxicity assay, CT26 target cells pre-incubated with blocking antibodies) (fraction of the control values) [1] | CTL activity (CFSE-based cytotoxicity assay, CT26 target cells pre-incubated with blocking antibodies) (fraction of the control values) [2]
anti-MHC class I monoclonal antibody H-2K^d: SF1-1.1.1 (eBioScience) | 0.33 | 
anti-MHC class I monoclonal antibody H-2L^d: 28-14-8 (BioLegend) |  | 0.33
